Measurements: patent US8198021

What was measured:
[1] = test system: microcin J25
[2] = target: Escherichia coli RNA polymerase (RNAP) holoenzyme (Escherichia coli) (UniProt P0A7Z4); assay: fluorescence-detected abortive initiation assay (tri- and tetranucleotide synthesis), fit to partial-competitive inhibition
[3] = target: Escherichia coli RNA polymerase (RNAP) holoenzyme (Escherichia coli) (UniProt P0A7Z4); assay: transcription assay at four NTP concentrations, fit to partial-competitive inhibition (7-mer and 8-mer abortive products); Ki called the reciprocal of the equilibrium binding constant for the MccJ25-RNAP interaction

| Substance | α, the factor by which MccJ25 increases KM for NTPs (7-mer and 8-mer abortive products) [1] | α, the factor by which MccJ25 increases KM for NTPs (fluorescence-detected abortive initiation, tri- and tetranucleotide synthesis) [1] | Ki [2] [µM] | Ki [3] [µM] |
| --- | --- | --- | --- | --- |
| Escherichia coli RNA polymerase (RNAP) holoenzyme | 15 | α 8.7±2 |  |  |
| microcin J25 (peptide) |  |  | 1.2 | 1.4 |
